To fix the notation:
B1: SP-99 (peptide)
peptide: Ac-FIDEEVLM[S5]LVI[S5]MG-NH2
modifications: staple 9-13
SMILES: CC[C@H](C)[C@H](NC(=O)[C@H](Cc1ccccc1)NC(C)=O)C(=O)N[C@@H](CC(=O)O)C(=O)N[C@@H](CCC(=O)O)C(=O)N[C@@H](CCC(=O)O)C(=O)N[C@H](C(=O)N[C@@H](CC(C)C)C(=O)N[C@@H](CCSC)C(=O)N[C@@]1(C)CCCC=CCCC[C@@](C)(C(=O)N[C@@H](CCSC)C(=O)NCC(N)=O)NC(=O)[C@H]([C@@H](C)CC)NC(=O)[C@H](C(C)C)NC(=O)[C@H](CC(C)C)NC1=O)C(C)C
B2: SP-102 (peptide)
peptide: Ac-FIDEEVLM[S5]LVI[S5]MA-NH2
modifications: staple 9-13
SMILES: CC[C@H](C)[C@H](NC(=O)[C@H](Cc1ccccc1)NC(C)=O)C(=O)N[C@@H](CC(=O)O)C(=O)N[C@@H](CCC(=O)O)C(=O)N[C@@H](CCC(=O)O)C(=O)N[C@H](C(=O)N[C@@H](CC(C)C)C(=O)N[C@@H](CCSC)C(=O)N[C@@]1(C)CCCC=CCCC[C@@](C)(C(=O)N[C@@H](CCSC)C(=O)N[C@@H](C)C(N)=O)NC(=O)[C@H]([C@@H](C)CC)NC(=O)[C@H](C(C)C)NC(=O)[C@H](CC(C)C)NC1=O)C(C)C
B3: SP-103 (peptide)
peptide: Ac-FIDEEVLM[S5]LVI[S5]MAA-NH2
modifications: staple 9-13
SMILES: CC[C@H](C)[C@H](NC(=O)[C@H](Cc1ccccc1)NC(C)=O)C(=O)N[C@@H](CC(=O)O)C(=O)N[C@@H](CCC(=O)O)C(=O)N[C@@H](CCC(=O)O)C(=O)N[C@H](C(=O)N[C@@H](CC(C)C)C(=O)N[C@@H](CCSC)C(=O)N[C@@]1(C)CCCC=CCCC[C@@](C)(C(=O)N[C@@H](CCSC)C(=O)N[C@@H](C)C(=O)N[C@@H](C)C(N)=O)NC(=O)[C@H]([C@@H](C)CC)NC(=O)[C@H](C(C)C)NC(=O)[C@H](CC(C)C)NC1=O)C(C)C
B4: SP-101 (peptide)
peptide: Ac-FIDEEVLM[S5]LVI[S5]MALD-NH2
modifications: staple 9-13
SMILES: CC[C@H](C)[C@H](NC(=O)[C@H](Cc1ccccc1)NC(C)=O)C(=O)N[C@@H](CC(=O)O)C(=O)N[C@@H](CCC(=O)O)C(=O)N[C@@H](CCC(=O)O)C(=O)N[C@H](C(=O)N[C@@H](CC(C)C)C(=O)N[C@@H](CCSC)C(=O)N[C@@]1(C)CCCC=CCCC[C@@](C)(C(=O)N[C@@H](CCSC)C(=O)N[C@@H](C)C(=O)N[C@@H](CC(C)C)C(=O)N[C@@H](CC(=O)O)C(N)=O)NC(=O)[C@H]([C@@H](C)CC)NC(=O)[C@H](C(C)C)NC(=O)[C@H](CC(C)C)NC1=O)C(C)C
B5: SP-98 (peptide)
peptide: Ac-FIDEEVLM[S5]LVI[S5]MGLD-NH2
modifications: staple 9-13
SMILES: CC[C@H](C)[C@H](NC(=O)[C@H](Cc1ccccc1)NC(C)=O)C(=O)N[C@@H](CC(=O)O)C(=O)N[C@@H](CCC(=O)O)C(=O)N[C@@H](CCC(=O)O)C(=O)N[C@H](C(=O)N[C@@H](CC(C)C)C(=O)N[C@@H](CCSC)C(=O)N[C@@]1(C)CCCC=CCCC[C@@](C)(C(=O)N[C@@H](CCSC)C(=O)NCC(=O)N[C@@H](CC(C)C)C(=O)N[C@@H](CC(=O)O)C(N)=O)NC(=O)[C@H]([C@@H](C)CC)NC(=O)[C@H](C(C)C)NC(=O)[C@H](CC(C)C)NC1=O)C(C)C
B6: SP-100 (peptide)
peptide: Ac-FIDEEVLM[S5]LVI[S5]MALDRIKE-NH2
modifications: staple 9-13
SMILES: CC[C@H](C)[C@H](NC(=O)[C@H](CCCNC(=N)N)NC(=O)[C@H](CC(=O)O)NC(=O)[C@H](CC(C)C)NC(=O)[C@H](C)NC(=O)[C@H](CCSC)NC(=O)[C@]1(C)CCCC=CCCC[C@](C)(NC(=O)[C@H](CCSC)NC(=O)[C@H](CC(C)C)NC(=O)[C@@H](NC(=O)[C@H](CCC(=O)O)NC(=O)[C@H](CCC(=O)O)NC(=O)[C@H](CC(=O)O)NC(=O)[C@@H](NC(=O)[C@H](Cc2ccccc2)NC(C)=O)[C@@H](C)CC)C(C)C)C(=O)N[C@@H](CC(C)C)C(=O)N[C@@H](C(C)C)C(=O)N[C@@H]([C@@H](C)CC)C(=O)N1)C(=O)N[C@@H](CCCCN)C(=O)N[C@@H](CCC(=O)O)C(N)=O
B7: SP-89 (peptide)
peptide: Ac-EVLM[S5]LVI[S5]MGLDRIKELPELWL-NH2
modifications: staple 5-9
SMILES: CC[C@H](C)[C@H](NC(=O)[C@H](CCCNC(=N)N)NC(=O)[C@H](CC(=O)O)NC(=O)[C@H](CC(C)C)NC(=O)CNC(=O)[C@H](CCSC)NC(=O)[C@]1(C)CCCC=CCCC[C@](C)(NC(=O)[C@H](CCSC)NC(=O)[C@H](CC(C)C)NC(=O)[C@@H](NC(=O)[C@H](CCC(=O)O)NC(C)=O)C(C)C)C(=O)N[C@@H](CC(C)C)C(=O)N[C@@H](C(C)C)C(=O)N[C@@H]([C@@H](C)CC)C(=O)N1)C(=O)N[C@@H](CCCCN)C(=O)N[C@@H](CCC(=O)O)C(=O)N[C@@H](CC(C)C)C(=O)N1CCC[C@H]1C(=O)N[C@@H](CCC(=O)O)C(=O)N[C@@H](CC(C)C)C(=O)N[C@@H](Cc1c[nH]c2ccccc12)C(=O)N[C@@H](CC(C)C)C(N)=O
B8: SP-119 (peptide)
peptide: Ac-FIDE[S5]VLM[S5]LVIE[Nle]ALDRI-NH2
modifications: staple 5-9
SMILES: CCCC[C@H](NC(=O)[C@H](CCC(=O)O)NC(=O)[C@@H](NC(=O)[C@@H](NC(=O)[C@H](CC(C)C)NC(=O)[C@]1(C)CCCC=CCCC[C@](C)(NC(=O)[C@H](CCC(=O)O)NC(=O)[C@H](CC(=O)O)NC(=O)[C@@H](NC(=O)[C@H](Cc2ccccc2)NC(C)=O)[C@@H](C)CC)C(=O)N[C@@H](C(C)C)C(=O)N[C@@H](CC(C)C)C(=O)N[C@@H](CCSC)C(=O)N1)C(C)C)[C@@H](C)CC)C(=O)N[C@@H](C)C(=O)N[C@@H](CC(C)C)C(=O)N[C@@H](CC(=O)O)C(=O)N[C@@H](CCCNC(=N)N)C(=O)N[C@H](C(N)=O)[C@@H](C)CC
B9: SP-350 (peptide)
peptide: Ac-LLQAE[R8]LLRALD[S5]VNIDEEVL[Nle][S5]LVI[S5][Nle]-NH2
modifications: staple 6-13, 23-27
SMILES: CCCC[C@H](NC(=O)[C@]1(C)CCCC=CCCC[C@](C)(NC(=O)[C@H](CCCC)NC(=O)[C@H](CC(C)C)NC(=O)[C@@H](NC(=O)[C@H](CCC(=O)O)NC(=O)[C@H](CCC(=O)O)NC(=O)[C@H](CC(=O)O)NC(=O)[C@@H](NC(=O)[C@H](CC(N)=O)NC(=O)[C@@H](NC(=O)[C@]2(C)CCCC=CCCCCCC[C@@](C)(NC(=O)[C@H](CCC(=O)O)NC(=O)[C@H](C)NC(=O)[C@H](CCC(N)=O)NC(=O)[C@H](CC(C)C)NC(=O)[C@H](CC(C)C)NC(C)=O)C(=O)N[C@@H](CC(C)C)C(=O)N[C@@H](CC(C)C)C(=O)N[C@@H](CCCNC(=N)N)C(=O)N[C@@H](C)C(=O)N[C@@H](CC(C)C)C(=O)N[C@@H](CC(=O)O)C(=O)N2)C(C)C)[C@@H](C)CC)C(C)C)C(=O)N[C@@H](CC(C)C)C(=O)N[C@@H](C(C)C)C(=O)N[C@@H]([C@@H](C)CC)C(=O)N1)C(N)=O
B10: SP-282 (peptide)
peptide: Ac-FIDEQVLM[S5]LVI[S5]MALDRI-NH2
modifications: staple 9-13
SMILES: CC[C@H](C)[C@H](NC(=O)[C@H](CCCNC(=N)N)NC(=O)[C@H](CC(=O)O)NC(=O)[C@H](CC(C)C)NC(=O)[C@H](C)NC(=O)[C@H](CCSC)NC(=O)[C@]1(C)CCCC=CCCC[C@](C)(NC(=O)[C@H](CCSC)NC(=O)[C@H](CC(C)C)NC(=O)[C@@H](NC(=O)[C@H](CCC(N)=O)NC(=O)[C@H](CCC(=O)O)NC(=O)[C@H](CC(=O)O)NC(=O)[C@@H](NC(=O)[C@H](Cc2ccccc2)NC(C)=O)[C@@H](C)CC)C(C)C)C(=O)N[C@@H](CC(C)C)C(=O)N[C@@H](C(C)C)C(=O)N[C@@H]([C@@H](C)CC)C(=O)N1)C(N)=O

Bridge positions count the residues as written; N and C are the ends. Square brackets hold non-standard residues; d marks the D form. R8 = C=CCCCCCC[C@@](C)(N)C(=O)O; S5 = C=CCCC[C@](C)(N)C(=O)O; Nle = CCCC[C@H](N)C(=O)O

T1 sequence (Q09472 323-423 limits assumed): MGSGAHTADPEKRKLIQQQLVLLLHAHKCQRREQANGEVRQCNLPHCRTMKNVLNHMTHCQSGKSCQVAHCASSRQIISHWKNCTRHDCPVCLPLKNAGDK

One assay addresses T1, His6-tagged p300 (AA 323-423) (UniProt Q09472 323-423).
T1 construct: range 323-423; also called p300-CH; not shown: His6 tag
Nature of the assay: TR-FRET HIF1a/p300 displacement; grade = IC50 >700 nM. The procedure, abridged:
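Competitor peptides were added to the HIF1α CTAD/p300 complex (300 nM final) in 150 mM NaCl, 20 mM HEPES pH 7.4, 7.5 mM CHAPS and 1 mM DTT for 1 h at room temperature. Anti-Flag-K (0.5 μM) and anti-6×His-D2 (4 nM) then followed for 2 h. IC50 came from a one-site logIC50 fit of the donor/acceptor ratio.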
Turning to B1, the IC50 (usually the concentration at which inhibition is half-maximal) was > 700 nM. As to B2, the IC50 was > 700 nM. In the case of B3, the IC50 was > 700 nM.

As for B4, the IC50 was > 700 nM. Same read-out and setting: next, B5: > 700 nM; B6: > 700 nM.

A further assay addresses T1, His6-tagged p300 (AA 323-423). Description: TR-FRET HIF1a/p300 displacement; grade = IC50 <=200 nM. The method, then:
The ability of peptides to displace HIF1α c-terminal trans-activation domain from p300-CH was measured by a TR FRET assay. […] The complex was diluted to 300 nM final in complete assay media and competitor peptides were added. The complete assay media contained 150 mM NaCl (Sigma +S5150 or equivalent), 20 mM HEPES pH 7.4 (Boston Bioproducts, Ashland, Mass.; #BB-2076), 7.5 mM CHAPS (Thermo #28300 or equivalent), and 1 mM DTT. Protein and peptide were incubated at room temperature for 1 hour before the addition of anti-Flag-K and anti-6×HIS-D2 (CisBio, Bedford Mass.) HTRF reconstitution buffer (50 mM Phosphate pH 7, 0.8 Potassium Flouride, BSA 0.2%)¹ to a final concentration of 0.5 μM and 4 nM respectively. The reaction continued for an additional two hours at room temperature. The reaction was read on a TECAN F500 plate reader with settings recommended by CisBio. The ratio of donor to acceptor fluorescence was calculated. The resulting data was analyzed with Graphpad Prism 5.0. IC50 values were calculated for both proteins using the One Site Fit-LogIC50 equation and presented in the column “IC₅₀ (nM) (HIF1α_p300 Displacement+CHAPS)” of Table 6. ¹ Cisbio USA, Bedford, Mass.; 61HISDLB (lot 007A), 61FG2KLB (024A), HTRF Buffer (62RB3RDF)
(In TR-FRET formats the signal depends on donor and acceptor labels being close together.)
As to B7, the IC50 was ≤ 200 nM.

For the molecule B8, the concentration for half-maximal inhibition (IC50) is ≤ 200 nM. Same read-out and setting: next, B9: ≤ 200 nM. As for B10, the IC50 was ≤ 200 nM.

Source of the values: patent US20190225650A1, “PEPTIDOMIMETIC MACROCYCLES AND USE THEREOF IN REGULATING HIF1ALPHA” (AILERON THERAPEUTICS, INC., priority 2013, published 2019).
